Assay results from paper PMC4655273, “Schwann Cell Expressed Nogo-B Modulates Axonal Branching of Adult Sensory Neurons Through the Nogo-B Receptor NgBR” (Frontiers in Cellular Neuroscience, 2015).

Target: T1, Nogo-B (mouse (endogenous in primary Schwann …, UniProt Q99P72-5 1-356))
T1 sequence (looked up): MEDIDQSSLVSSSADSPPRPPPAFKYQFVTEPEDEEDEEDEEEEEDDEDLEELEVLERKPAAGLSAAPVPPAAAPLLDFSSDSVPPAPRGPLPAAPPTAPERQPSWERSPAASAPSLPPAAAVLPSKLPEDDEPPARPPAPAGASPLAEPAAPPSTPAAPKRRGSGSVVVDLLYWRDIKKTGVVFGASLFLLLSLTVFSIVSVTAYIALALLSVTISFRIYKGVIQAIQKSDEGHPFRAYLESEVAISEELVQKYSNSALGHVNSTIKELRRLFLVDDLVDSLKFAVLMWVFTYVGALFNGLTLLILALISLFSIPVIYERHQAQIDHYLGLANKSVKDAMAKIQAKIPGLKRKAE
Test: cell-based or functional assay

B1: Nogo-B receptor NgBR (receptor, mouse (endogenous in sensory neurons), UniProt Q99LJ8 1-297, looked up)
chain: MTGLYELVWRVLHALLCLHLTLTSWLRVRFGTWNWIWRRCCRAASAAVLAPLGFTLRKPRAVGRNRRHHRHPHGGPGPGPGPAATHPRLRWRADVRSLQKLPVHMGLLVTEEVQEPSFSDIASLVVWCMAVGISYISVYDHQGIFKRNNSRLMDEILKQQQELLGQDCSKYSAEFANSNDKDDQDLNCPSAVKVLSPEDGKADIVRAAQDFCQLVAQQQRKPTDLDVDLLGSLLSSHGFPDPDLVLKFGPVDSTLGFLPWQIRLTEIVSLPSHLNISYEDFFSALRQYAACEQRLGK
total neurite length (TNL) of adult wildtype sensory neurons on wildtype Schwann cells with recombinant NgBR-Ecto at 1 μg/ml, relative to control (set to 1.0): 0.74 relative to the control levels
